T1: ComA (Bacillus subtilis (genomic DNA; strain …, UniProt P14204 2-214)
T1 sequence: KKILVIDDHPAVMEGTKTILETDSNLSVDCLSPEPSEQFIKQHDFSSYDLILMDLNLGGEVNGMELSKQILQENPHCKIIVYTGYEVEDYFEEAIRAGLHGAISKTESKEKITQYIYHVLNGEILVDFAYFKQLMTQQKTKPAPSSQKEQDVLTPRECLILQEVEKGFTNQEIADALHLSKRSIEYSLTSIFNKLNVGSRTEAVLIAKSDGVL

T2: ComA;Rap60 (Bacillus subtilis (genomic DNA; strain …, UniProt P14204;Q45456 2-214;2-375, |)
T2 sequence 1: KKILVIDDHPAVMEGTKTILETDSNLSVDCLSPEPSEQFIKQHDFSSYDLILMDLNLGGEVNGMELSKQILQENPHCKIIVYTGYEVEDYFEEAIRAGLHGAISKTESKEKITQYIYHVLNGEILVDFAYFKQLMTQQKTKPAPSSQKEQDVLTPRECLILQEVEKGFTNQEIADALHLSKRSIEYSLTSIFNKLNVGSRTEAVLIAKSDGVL
T2 sequence 2: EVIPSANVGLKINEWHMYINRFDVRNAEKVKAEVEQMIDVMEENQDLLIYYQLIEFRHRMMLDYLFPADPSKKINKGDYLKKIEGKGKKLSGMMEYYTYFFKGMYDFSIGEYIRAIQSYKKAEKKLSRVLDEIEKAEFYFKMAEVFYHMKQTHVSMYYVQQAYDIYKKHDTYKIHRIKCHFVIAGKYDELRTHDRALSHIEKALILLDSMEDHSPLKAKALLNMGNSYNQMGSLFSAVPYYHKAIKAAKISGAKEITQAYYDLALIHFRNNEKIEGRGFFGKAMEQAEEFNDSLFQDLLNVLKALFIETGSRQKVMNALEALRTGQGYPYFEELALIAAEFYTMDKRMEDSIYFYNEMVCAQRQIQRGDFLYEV

T3: ComA;Rap60(R26A) (Bacillus subtilis (genomic DNA; strain …, UniProt P14204;Q45456 2-214;2-375, |R26A)
T3 sequence 1: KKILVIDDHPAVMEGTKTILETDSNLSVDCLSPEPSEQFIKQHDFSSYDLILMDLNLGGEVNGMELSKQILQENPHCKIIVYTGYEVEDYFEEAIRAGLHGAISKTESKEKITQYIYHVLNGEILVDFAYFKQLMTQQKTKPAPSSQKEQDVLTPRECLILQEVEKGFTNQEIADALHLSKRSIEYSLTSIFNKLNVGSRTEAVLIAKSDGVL
T3 sequence 2: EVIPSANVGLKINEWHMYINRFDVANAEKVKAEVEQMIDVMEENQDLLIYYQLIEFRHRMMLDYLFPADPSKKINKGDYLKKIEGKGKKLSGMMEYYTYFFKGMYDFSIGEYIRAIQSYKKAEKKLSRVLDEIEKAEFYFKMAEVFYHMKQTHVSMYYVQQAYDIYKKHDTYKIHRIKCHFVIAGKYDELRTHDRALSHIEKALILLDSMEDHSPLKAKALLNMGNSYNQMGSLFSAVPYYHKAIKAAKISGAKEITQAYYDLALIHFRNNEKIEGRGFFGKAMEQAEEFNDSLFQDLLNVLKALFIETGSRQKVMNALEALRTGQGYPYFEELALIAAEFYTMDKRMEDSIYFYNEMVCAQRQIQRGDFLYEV

T4: ComA;Rap60(R26P) (Bacillus subtilis (genomic DNA; strain …, UniProt P14204;Q45456 2-214;2-375, |R26P)
T4 sequence 1: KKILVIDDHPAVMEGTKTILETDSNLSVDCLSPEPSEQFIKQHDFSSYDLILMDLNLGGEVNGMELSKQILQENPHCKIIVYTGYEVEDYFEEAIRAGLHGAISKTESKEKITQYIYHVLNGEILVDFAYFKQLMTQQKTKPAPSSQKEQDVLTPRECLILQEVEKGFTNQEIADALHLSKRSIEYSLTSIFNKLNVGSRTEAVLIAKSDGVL
T4 sequence 2: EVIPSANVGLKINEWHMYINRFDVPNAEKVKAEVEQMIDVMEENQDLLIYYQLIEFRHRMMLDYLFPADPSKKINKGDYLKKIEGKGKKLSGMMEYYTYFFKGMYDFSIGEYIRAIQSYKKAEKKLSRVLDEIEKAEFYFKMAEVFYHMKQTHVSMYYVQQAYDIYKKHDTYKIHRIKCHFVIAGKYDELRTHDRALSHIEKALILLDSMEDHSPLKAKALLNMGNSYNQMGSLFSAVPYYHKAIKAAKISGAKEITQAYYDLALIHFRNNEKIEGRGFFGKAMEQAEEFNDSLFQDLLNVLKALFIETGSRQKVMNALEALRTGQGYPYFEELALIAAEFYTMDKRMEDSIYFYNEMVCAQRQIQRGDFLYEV

T5: Rap60 (Bacillus subtilis plasmid pTA1060, UniProt Q45456 2-375)
T5 sequence: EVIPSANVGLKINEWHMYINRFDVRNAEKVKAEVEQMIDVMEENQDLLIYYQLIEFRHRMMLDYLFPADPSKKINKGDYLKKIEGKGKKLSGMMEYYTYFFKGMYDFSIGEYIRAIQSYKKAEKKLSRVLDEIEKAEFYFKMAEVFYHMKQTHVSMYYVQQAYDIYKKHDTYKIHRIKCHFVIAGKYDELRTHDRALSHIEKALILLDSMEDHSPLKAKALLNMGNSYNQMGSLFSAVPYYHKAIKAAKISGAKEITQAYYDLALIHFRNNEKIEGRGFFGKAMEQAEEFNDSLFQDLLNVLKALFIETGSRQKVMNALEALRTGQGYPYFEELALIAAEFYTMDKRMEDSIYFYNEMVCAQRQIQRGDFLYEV

T6: ComA;Rap60(N27A) (Bacillus subtilis (genomic DNA; strain …, UniProt P14204;Q45456 2-214;2-375, |N27A)
T6 sequence 1: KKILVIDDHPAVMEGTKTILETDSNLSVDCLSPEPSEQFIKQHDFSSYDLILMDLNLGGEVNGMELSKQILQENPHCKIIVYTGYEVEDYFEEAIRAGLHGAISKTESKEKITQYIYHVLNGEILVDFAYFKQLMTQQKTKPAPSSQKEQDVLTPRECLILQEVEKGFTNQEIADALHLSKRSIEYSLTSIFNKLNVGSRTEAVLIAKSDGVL
T6 sequence 2: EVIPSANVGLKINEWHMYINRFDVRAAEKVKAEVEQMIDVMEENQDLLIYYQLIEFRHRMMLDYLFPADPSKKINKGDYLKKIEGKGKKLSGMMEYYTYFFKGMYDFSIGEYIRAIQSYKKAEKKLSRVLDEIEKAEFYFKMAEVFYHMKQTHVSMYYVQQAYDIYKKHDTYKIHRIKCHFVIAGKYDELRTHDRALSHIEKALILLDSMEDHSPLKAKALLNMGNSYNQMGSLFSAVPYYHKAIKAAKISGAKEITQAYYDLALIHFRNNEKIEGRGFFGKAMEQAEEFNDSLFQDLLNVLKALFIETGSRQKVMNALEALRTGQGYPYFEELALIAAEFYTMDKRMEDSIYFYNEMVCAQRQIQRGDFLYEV


Key:
ComP(CD) (his6-ComP(CD)) = ComP(CD) (his6-ComP(CD)) (Bacillus subtilis, UniProt Q99027); experiment: autophosphorylation with γ-32P-ATP, SDS-PAGE, phosphorimaging; assay type: biochemical; settings: 0.5 mM ATP; 20 mM MgCl2, pH 8-8.5, 24°C; labelled compound
Chain of ComP(CD) (his6-ComP(CD)) (Q99027 384-769): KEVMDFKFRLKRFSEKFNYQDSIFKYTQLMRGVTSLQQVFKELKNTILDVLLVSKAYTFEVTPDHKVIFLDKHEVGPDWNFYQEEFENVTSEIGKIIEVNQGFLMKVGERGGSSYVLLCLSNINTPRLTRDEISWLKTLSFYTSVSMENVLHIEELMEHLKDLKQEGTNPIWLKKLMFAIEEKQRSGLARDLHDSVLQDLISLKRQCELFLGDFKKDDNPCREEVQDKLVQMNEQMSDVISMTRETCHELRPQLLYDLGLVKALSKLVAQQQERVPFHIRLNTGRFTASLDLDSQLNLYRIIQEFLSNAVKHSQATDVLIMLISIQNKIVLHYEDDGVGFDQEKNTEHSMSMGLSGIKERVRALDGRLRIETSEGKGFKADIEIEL

ComA = molecular target: T1, ComA; experiment: EMSA
ComA;Rap60 = molecular target: T2, ComA;Rap60; experiment: EMSA
ComA;Rap60(R26A) = molecular target: T3, ComA;Rap60(R26A); experiment: EMSA
ComA;Rap60(R26P) = molecular target: T4, ComA;Rap60(R26P); experiment: EMSA
Rap60 = molecular target: T5, Rap60; experiment: EMSA
ComA;Rap60(N27A) = molecular target: T6, ComA;Rap60(N27A); experiment: EMSA

Row | Molecule | autophosphorylation with γ-32P-ATP, SDS-PAGE, phosphorimaging (ComP(CD) (his6-ComP(CD))) | binding result (ComA) | binding result (ComA;Rap60) | binding result (ComA;Rap60(R26A)) | binding result (ComA;Rap60(R26P)) | binding result (Rap60) | binding result (ComA;Rap60(N27A))
1 | Nc1ncnc2c1ncn2[C@@H]1O[C@H](COP(=O)(O)OP(=O)(O)OP(=O)(O)O)[C@@H](O)[C@H]1O [ATP] | ComP autophosphorylation, ComP~P dephosphorylation, phosphotransfer from ComP to ComA |  |  |  |  |  | 
2 | minimal consensus ComA binding site (dsDNA) DNA 1: TCATTGCGGCATCCCGCAAGAAACTTTGCGGTC DNA 2: GACCGCAAAGTTTCTTGCGGGATGCCGCAATGA |  | binds | binds | binds | binds | no binding | binds

Source: PMC4701059 (Molecular microbiology, 2015)
